# B1: Clone 39-H17B11 VHH antibody (VHH)
# VHH: QVQLVESGGGLVQAGGSLRLSCAASGRTFSSYAMGWFRQTPGKDREFVARIGWTGGTTIYADSVKGRFTISRDNAKNTVYLQMNSLKPEDTAVYYCAADQAGWRTAGVRNTYEYDYWGQGTQVTVSS
# notes: Llama single domain antibody; also called clone 17B11; not shown: tags: c-myc tag on the soluble VHH in periplasmic extracts; FLAG and His tags on the purified VHH
# Assays:
# [1] = biological target: T1, porcine CD163 with deletion of SRCR domain 5, on pPAMΔ5 cells (porcine, UniProt Q2VL90 47-1115); assay: P.E. binding FACS on pPAMΔ5 cells
# T1 construct: also called pPAMΔ5 domain cells; pPAMΔ5 WT cells
# T1 sequence: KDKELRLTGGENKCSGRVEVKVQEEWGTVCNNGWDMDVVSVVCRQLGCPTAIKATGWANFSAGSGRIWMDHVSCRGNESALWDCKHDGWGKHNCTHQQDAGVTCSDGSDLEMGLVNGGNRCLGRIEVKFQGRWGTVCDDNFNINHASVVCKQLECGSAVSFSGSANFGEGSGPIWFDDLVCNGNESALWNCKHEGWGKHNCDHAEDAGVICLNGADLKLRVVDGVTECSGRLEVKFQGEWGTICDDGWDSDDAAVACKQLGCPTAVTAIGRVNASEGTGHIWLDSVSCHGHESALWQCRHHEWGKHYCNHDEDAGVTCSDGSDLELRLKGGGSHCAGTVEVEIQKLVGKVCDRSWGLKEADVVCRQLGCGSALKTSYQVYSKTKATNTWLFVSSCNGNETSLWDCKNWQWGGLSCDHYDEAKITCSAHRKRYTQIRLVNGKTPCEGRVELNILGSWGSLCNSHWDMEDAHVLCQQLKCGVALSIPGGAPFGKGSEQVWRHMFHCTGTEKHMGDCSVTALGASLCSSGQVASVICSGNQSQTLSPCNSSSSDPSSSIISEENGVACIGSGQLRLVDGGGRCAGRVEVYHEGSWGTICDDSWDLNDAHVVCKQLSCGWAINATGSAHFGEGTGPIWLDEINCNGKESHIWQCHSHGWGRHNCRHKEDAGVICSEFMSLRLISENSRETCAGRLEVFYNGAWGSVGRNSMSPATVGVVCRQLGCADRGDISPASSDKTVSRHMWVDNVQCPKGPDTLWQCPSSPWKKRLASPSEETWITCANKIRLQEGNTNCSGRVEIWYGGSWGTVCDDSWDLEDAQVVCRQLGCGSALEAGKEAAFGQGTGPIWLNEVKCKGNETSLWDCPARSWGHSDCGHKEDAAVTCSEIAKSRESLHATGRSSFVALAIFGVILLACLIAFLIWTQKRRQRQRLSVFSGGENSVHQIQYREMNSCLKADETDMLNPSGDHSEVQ
# Experimental: Periplasmic Extract (P.E) from the selected clones were incubated with anti-c-myc antibody (Roche; Cat. nr. 11667203001), specific to the c-myc tag present in the soluble VHH, for 30 minutes with agitation at room temperature (RT). The mix (P.E+anti-c-myc antibody) was added to the pPAM WT or pPAMΔ5 domain (cells with deletion of SRCR domain 5) and incubated for 60 min at 4° C. with gentle shaking.
# Cells were washed 3× with 150 μl/well of FACS Buffer and incubated with 50 μl/well of the secondary antibody GAM-APC for 30 min at 4° C. and protected from the light, with shaking.
# pCD163-SRCR-FL-PST2-His = biological target: T2, pCD163-SRCR-FL-PST2-His (porcine, UniProt Q2VL90 51-1044); assay: Biacore 3000 SPR, antigen amine-coupled on CM5 chip, VHH 200-12.5 nM, pH 7.4, 1:1 binding with mass transfer
# T2 construct: also called pCD163-1-PST2-His; pCD163-SRCR1-PST2; not shown: His tag
# T2 sequence: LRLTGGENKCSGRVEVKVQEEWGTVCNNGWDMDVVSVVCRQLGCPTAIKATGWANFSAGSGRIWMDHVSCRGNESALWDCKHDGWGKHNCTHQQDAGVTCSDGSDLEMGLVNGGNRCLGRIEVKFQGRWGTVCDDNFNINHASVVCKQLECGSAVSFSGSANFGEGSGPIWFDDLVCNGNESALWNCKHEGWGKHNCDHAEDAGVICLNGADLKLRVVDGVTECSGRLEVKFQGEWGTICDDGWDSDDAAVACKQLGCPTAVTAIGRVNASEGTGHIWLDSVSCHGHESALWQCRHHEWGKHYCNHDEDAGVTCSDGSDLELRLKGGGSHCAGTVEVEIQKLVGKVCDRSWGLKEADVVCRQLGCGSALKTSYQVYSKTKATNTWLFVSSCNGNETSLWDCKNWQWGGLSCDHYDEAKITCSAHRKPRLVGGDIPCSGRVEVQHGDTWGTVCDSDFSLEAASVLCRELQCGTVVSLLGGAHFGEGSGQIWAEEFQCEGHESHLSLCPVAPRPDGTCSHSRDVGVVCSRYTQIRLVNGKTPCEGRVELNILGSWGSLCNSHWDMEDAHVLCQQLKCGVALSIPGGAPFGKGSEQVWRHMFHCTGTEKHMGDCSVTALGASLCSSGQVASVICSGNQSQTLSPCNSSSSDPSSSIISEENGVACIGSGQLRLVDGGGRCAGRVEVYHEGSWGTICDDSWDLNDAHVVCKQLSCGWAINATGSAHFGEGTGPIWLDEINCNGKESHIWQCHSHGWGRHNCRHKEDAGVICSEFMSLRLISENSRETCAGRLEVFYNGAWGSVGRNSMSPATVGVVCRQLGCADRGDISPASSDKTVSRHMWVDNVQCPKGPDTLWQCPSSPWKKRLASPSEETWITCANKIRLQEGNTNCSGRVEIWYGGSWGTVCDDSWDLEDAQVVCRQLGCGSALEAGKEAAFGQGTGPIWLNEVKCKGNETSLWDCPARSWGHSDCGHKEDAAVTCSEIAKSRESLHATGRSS
# Experimental: Surface plasmon resonance (SPR) (Biacore 3000, GE Healthcare) was used to determine the binding kinetics of selected single domain antibodies at pH7.4. Approximately 2075 to 2423 RUs of pCD163-SRCR1-9-huFc or 2859 to 3286 RUs of pCD163-1-PST2-His. respectively, at 20 or 30 μg/ml in Acetate buffer pH 5.0 or pH 5.5 were immobilized onto a CM5 chip using the standard amine coupling procedure.
# 1×HBS-EP pH 7.4, was utilized as a running buffer during binding kinetic measurements. Purified VHH were injected at 2-fold dilution from 200 nM down to 12.5 nM in HBS-EP pH 7.4, at 30 μl/min for 2 minutes, followed by an off-rate wash for 1 min between injections. Off-rate wash was 300s after the last concentration injection in each cycle. RU levels were restored to base levels after regeneration with two injections of 10 μl of 1 M NaCl, 1 mM Glycine pH 1.5 between samples.
# Fitting 1:1 binding with mass transfer was applied to the set of sample curves using the simultaneous fitting option of the BIAevaluation software to calculate the kinetic constants of the antibody-antigen interactions including association rate (ka), dissociation rate (kd) and affinity (KD). Curves were removed from the fitting after visual examination of the residuals and considering the value of Chi2: a minimum of 4 curves were considered for the simultaneous fitting.
binder,measurement,setting,value
B1,binding result,[1],no binding
same,Kd,pCD163-SRCR-FL-PST2-His,255 µM
same,koff,pCD163-SRCR-FL-PST2-His,0.281 s⁻¹
same,kon,pCD163-SRCR-FL-PST2-His,1100 M⁻¹ s⁻¹

# — patent US20260085129A1 (ECO ANIMAL HEALTH, published 2026)
